The record followed here is PMC6238616.

Assay [1] has as its target synaptotagmin binding cytoplasmic RNA interacting protein (SYNCRIP), wild type, LUMIER fusion. Put plainly: LUMIER. As to conditions: read off a plot.
For assay [2], the target named is SMN1, wild type, LUMIER fusion (UniProt Q16637). The assay can be described thus: LUMIER. As to conditions: parent: est. 120000; read off a plot.
Sequence of SMN1, wild type, LUMIER fusion (UniProt Q16637) (Q16637 whole entry, the tested form may be a part): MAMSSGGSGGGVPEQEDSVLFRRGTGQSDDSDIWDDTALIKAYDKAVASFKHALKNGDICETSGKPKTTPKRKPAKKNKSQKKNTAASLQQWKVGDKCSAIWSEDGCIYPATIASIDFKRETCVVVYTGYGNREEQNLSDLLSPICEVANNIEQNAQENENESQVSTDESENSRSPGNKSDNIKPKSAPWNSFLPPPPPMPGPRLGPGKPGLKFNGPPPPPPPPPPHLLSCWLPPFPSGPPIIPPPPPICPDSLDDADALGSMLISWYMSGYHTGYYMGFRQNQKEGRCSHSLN

Sequence of SMN1, wild type, LUMIER fusion (from UniProt Q16637) SMN1 DD MT (Q16637 whole entry, change not shown, the tested form may be a part): as the sequence (Q16637 whole entry, the tested form may be a part) above

With “PHF1, wild type, LUMIER fusion (from UniProt O43189) Y47A”, the response in assay [1] (parent: est. 100000) was 32000 RU.

Regarding “SMN1, wild type, LUMIER fusion (from UniProt Q16637) SMN1 DD MT”, the results for the response in assay [2] and in assay [1] (parent: est. 180000) were 37000 RU and 110000 RU, respectively.

Consider “SMN1, wild type, LUMIER fusion (from UniProt Q16637) Y127L”, for which the response in assay [1] (parent: est. 180000) amounted to 91000 RU.
